The target in assay [1] is HLA-A*0201 molecule expressed on the human tumoral cell T2 (human). Kind of assay: T2 cell HLA-A2 FACS (BB7.2-PE), peptide 1 µM.
For assay [2] the target is unchanged. Kind of assay: T2 cell HLA-A2 FACS (BB7.2-PE), peptide 1 µM. The source holds these as a separate data set.
For assay [3] the target is unchanged. Description: T2 cell HLA-A2 FACS (BB7.2-PE), peptide 1 µM. This is another data set of the same source.
Assay [4] shares this target. Kind of assay: T2 cell HLA-A2 FACS (BB7.2-PE), peptide 10 µM.
The target is the same in assay [5]. Kind of assay: T2 cell HLA-A2 FACS (BB7.2-PE), peptide 10 µM. The source holds these as a separate data set.
The target is the same in assay [6]. Kind of assay: T2 cell HLA-A2 FACS (BB7.2-PE), peptide 10 µM. The source holds these as a separate data set.
The target is the same in assay [7]. Description: T2 cell HLA-A2 FACS (BB7.2-PE), peptide 0.1 µM.
Assay [8] shares this target. Kind of assay: T2 cell HLA-A2 FACS (BB7.2-PE), peptide 0.1 µM. This is another data set of the same source.
For assay [9] the target is unchanged. Description: T2 cell HLA-A2 FACS (BB7.2-PE), peptide 0.1 µM. This is another data set of the same source.
The target is the same in assay [10]. Description: T2 cell HLA-A2 FACS (BB7.2-PE), peptide titration.
Assay [11] has the same target. Kind of assay: T2 cell HLA-A2 FACS (BB7.2-PE), peptide titration. The source holds these as a separate data set.
Assay [12] has the same target. Description: T2 cell HLA-A2 FACS (BB7.2-PE), peptide titration. The source holds these as a separate data set.

Like-named read-outs stand apart in the source and are kept apart here.

Consider reference peptide HIV pol 589-597, for which the HLA-A2 labelling as % of reference peptide HIV pol 589-597 at 100 µM was -5.38% in [1]; -2.54% in assay [2]; 4.65% in assay [3]; -3.03% in [4]; 3.8% in [5]; 8.8% in assay [6]. Moreover, the figures for the HLA-A2 labelling as % of reference peptide HIV pol 589-597 at 100 µM in [7], in assay [8] and in [9] were -9.24%, 2.58% and 5.62%, respectively. Further, the Conc. inducing 20% of HLA-A2 expression is 36 µM in [10], 30.9 µM in assay [11] and 26.5 µM in assay [12].

The record behind these values is US20230201322A1.
